We go through two variants from article PMC9935876, “Structure of the planar cell polarity cadherins Fat4 and Dachsous1” (Nature Communications, 2023).

B1: human Fat4(EC1–4) [human] / human Dchs1(EC1–4) [human] (parent complex)
chain 1: DPAEPRQVFQVLEEQPPGTLVGTIQTRPGFTYRLSESHALFAINSSTGALYTTSTIDRESLPSDVINLVVLSSAPTYPTEVRVLVRDLNDNAPVFPDPSIVVTFKEDSSSGRQVILDTATDSDIGSNGVDHRSYRIIRGNEAGRFRLDITLNPSGEGAFLHLVSKGGLDREVTPQYQLLVEVEDKGEPKRRGYLQVNVTVQDINDNPPVFGSSHYQAGVPEDAVVGSSVLQVAAADADEGTNADIRYRLQDEGTPFQMDPETGLITVREPLDFEARRQYSLTVQAMDRGVPSLTGRAEALIQLLDVNDNDPVVKFRYFPATSRYASVDENAQVGTVVALLTVTDADSPAANGNISVQILGGNEQRHFEVQSSKVPNLSLIKVASALDRERIPSYNLTVSVSDNYGAPPGAAVQARSSVASLVIFVNDINDHPPVF
chain 2: DPQAGSLDLQIDEEQPAGTLIGDISAGLPAGTAAPLMYFISAQEGSGVGTDLAIDEHSGVVRTARVLDREQRDRYRFTAVTPDGATVEVTVRVADINDHAPAFPQARAALQVPEHTAFGTRYPLEPARDADAGRLGTQGYALSGDGAGETFRLETRPGPDGTPVPELVVTGELDRENRSHYMLQLEAYDGGSPPRRAQALLDVTLLDINDHAPAFNQSRYHAVVSESLAPGSPVLQVFASDADAGVNGAVTYEINRRQSEGDGPFSIDAHTGLLQLERPLDFEQRRVHELVVQARDGGAHPELGSAFVTVHVRDANDNQPSMTVIFLSADGSPQVSEAAPPGQLVARISVSDPDDGDFAHVNVSLEGGEGHFALSTQDSVIYLVCVARRLDREERDAYNLRVTATDSGSPPLRAEAAFVLHVTDVNDNAPAF
B2: human Dchs1(EC1–4) [human] / human Fat4(EC1–4) [human] (parent complex)
chain 1: B1 chain 2
chain 2: B1 chain 1

Variants of B1 are the subject of the first test. The experiment in a line: ITC; parent: 1; read off a plot.
With chain 1 DPAEPRQVFQVLEEQPPGTLVGTIQTRPGFTYRLSESHALFAINSSTGALYTTSTIDRESLPSDVINLVVLSSAPTYPTEVRVLVRDLNDNAPVFPDPSIVVTFKEDSSSGRQVILDTATDSDIGSNGVDHRSYRIIRGNEAGRFRLDITLNPSGEGAFLHLVSKGGLDREVTPQYQLLVEVEDKGEPKRRGYLQVNVTVQDINDNPPVFGSSHYQAGVPEDAVVGSSVLQVAAADADEGTNADIRYRLQDEGTPFQMDPETGLITVREPLDFEARRQYSLTVQAMDRGVPSLTGRAEALIQLLDVNDNDPVVKFRYAPATSRYASVDENAQVGTVVALLTVTDADSPAANGNISVQILGGNEQRHFEVQSSKVPNLSLIKVASALDRERIPSYNLTVSVSDNYGAPPGAAVQARSSVASLVIFVNDINDHPPVF [chain 1 F318A], the ratio to parent is around 1.8.

Another test covers variants of B2. As to the kind of experiment: ITC; parent: 1; read off a plot. A general note: In ITC the heat of successive injections is recorded.
chain 1 DPQAGSLDLQIDEEQPAGTLIGDISAGLPAGTAAPLMYAISAQEGSGVGTDLAIDEHSGVVRTARVLDREQRDRYRFTAVTPDGATVEVTVRVADINDHAPAFPQARAALQVPEHTAFGTRYPLEPARDADAGRLGTQGYALSGDGAGETFRLETRPGPDGTPVPELVVTGELDRENRSHYMLQLEAYDGGSPPRRAQALLDVTLLDINDHAPAFNQSRYHAVVSESLAPGSPVLQVFASDADAGVNGAVTYEINRRQSEGDGPFSIDAHTGLLQLERPLDFEQRRVHELVVQARDGGAHPELGSAFVTVHVRDANDNQPSMTVIFLSADGSPQVSEAAPPGQLVARISVSDPDDGDFAHVNVSLEGGEGHFALSTQDSVIYLVCVARRLDREERDAYNLRVTATDSGSPPLRAEAAFVLHVTDVNDNAPAF [chain 1 F39A]: the ratio to parent was around 4.4.
